Tests used:
Assay in all cases: BLI
[1] = target: WRAIR-5005 (rhesus macaque)
[2] = target: WRAIR-5004 (rhesus macaque)
[3] = target: WRAIR-5021 (rhesus macaque)
[4] = target: WRAIR-5020 (rhesus macaque)
[5] = target: WRAIR-5011 (rhesus macaque)
[6] = target: WRAIR-5001 (rhesus macaque | human)

Sequence of WRAIR-5005 (rhesus macaque) (VH, as listed by the source, chain 1 of 2): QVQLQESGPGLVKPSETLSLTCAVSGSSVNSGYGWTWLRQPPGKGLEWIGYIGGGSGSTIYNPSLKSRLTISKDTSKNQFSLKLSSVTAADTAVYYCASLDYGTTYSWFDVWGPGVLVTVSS
Sequence of WRAIR-5005 (rhesus macaque) (VL, as listed by the source, chain 2 of 2): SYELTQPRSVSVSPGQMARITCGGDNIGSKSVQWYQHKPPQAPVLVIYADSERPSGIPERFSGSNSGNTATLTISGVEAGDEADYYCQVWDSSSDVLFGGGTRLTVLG
Sequence of WRAIR-5004 (rhesus macaque) (VH, as listed by the source, chain 1 of 2): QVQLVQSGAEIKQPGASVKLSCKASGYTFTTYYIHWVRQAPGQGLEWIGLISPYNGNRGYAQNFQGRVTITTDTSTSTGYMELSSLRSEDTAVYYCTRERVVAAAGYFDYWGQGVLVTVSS
Sequence of WRAIR-5004 (rhesus macaque) (VL, as listed by the source, chain 2 of 2): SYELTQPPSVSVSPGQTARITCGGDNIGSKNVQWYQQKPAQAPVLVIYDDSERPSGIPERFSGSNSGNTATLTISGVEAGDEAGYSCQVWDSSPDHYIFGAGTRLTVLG
Sequence of WRAIR-5021 (rhesus macaque) (VH, as listed by the source, chain 1 of 2): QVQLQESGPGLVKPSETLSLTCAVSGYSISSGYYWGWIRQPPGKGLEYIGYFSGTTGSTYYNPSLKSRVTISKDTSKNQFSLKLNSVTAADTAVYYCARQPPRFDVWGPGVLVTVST
Sequence of WRAIR-5021 (rhesus macaque) (VL, as listed by the source, chain 2 of 2): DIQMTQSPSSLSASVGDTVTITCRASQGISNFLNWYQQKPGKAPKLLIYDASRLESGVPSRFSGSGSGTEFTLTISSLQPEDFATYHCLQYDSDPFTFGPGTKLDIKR
Sequence of WRAIR-5011 (rhesus macaque) (VH, as listed by the source, chain 1 of 2): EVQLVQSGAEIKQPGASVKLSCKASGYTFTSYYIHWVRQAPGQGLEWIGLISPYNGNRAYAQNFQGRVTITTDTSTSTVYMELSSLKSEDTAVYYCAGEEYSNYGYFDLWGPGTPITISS
Sequence of WRAIR-5011 (rhesus macaque) (VL, as listed by the source, chain 2 of 2): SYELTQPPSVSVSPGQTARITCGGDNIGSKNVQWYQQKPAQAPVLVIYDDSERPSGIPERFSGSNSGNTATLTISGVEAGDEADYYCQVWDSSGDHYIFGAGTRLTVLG
Sequence of WRAIR-5020 (rhesus macaque) (VH, as listed by the source, chain 1 of 2): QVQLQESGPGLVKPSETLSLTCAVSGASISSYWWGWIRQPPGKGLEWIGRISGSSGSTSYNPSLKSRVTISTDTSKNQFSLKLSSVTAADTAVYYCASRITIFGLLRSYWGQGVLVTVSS
Sequence of WRAIR-5020 (rhesus macaque) (VL, as listed by the source, chain 2 of 2): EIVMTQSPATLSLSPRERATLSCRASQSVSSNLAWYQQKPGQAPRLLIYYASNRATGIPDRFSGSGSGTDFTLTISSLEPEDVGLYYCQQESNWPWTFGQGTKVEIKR

Row | Substance | Kd [1] [nM] | Kd [2] [nM] | Kd [3] [nM] | Kd [4] [nM] | Kd [5] [nM] | Kd [6] [nM]
1 | SARS-CoV-2 Omicron BA.1 RBD (from UniProt P0DTC2 331-527) (domain or fragment) | 14.9 | 1.93 | 8.05 | 24.1 | 0.38 | 0.23
2 | SARS-CoV-2 Omicron BA.4/5 RBD (from UniProt P0DTC2 331-527) (domain or fragment) | 41.1 | 3.1 | 2.63 | 34.5 | 0.42 | 0.92

— paper PMC10764318
